Assay results from US20200079833A1 (AstraZeneca / MedImmune, published 2020).
Starred links: 1 amine or outer side, 2 acyl side, 3 side chain; linkers in the order of their positions; H or OH if unused. Non-standard residues stand in square brackets, D forms with d. Groups on a side chain read outwards from the residue. Primed or numbered codes have the meaning given here. No end group written: not given here. *: point of attachment. Dodecylbenzoate = dodecylbenzoyl lipid group; γGlu = O=C(O)[C@H](CCC(=O)[*:2])N[*:1]; Stearoyl = CCCCCCCCCCCCCCCCCC(=O)*; αMeF = C[C@](N)(Cc1ccccc1)C(=O)O; αMeK = C[C@](N)(CCCCN)C(=O)O; Lauroyl = CCCCCCCCCCCC(=O)*; αMeS = C[C@](N)(CO)C(=O)O; PEG2′ = not defined here; Aib = CC(C)(N)C(=O)O; Ahx = NCCCCCC(=O)O

B1: SEQ ID NO 169 (peptide)
peptide: H[Aib]EGS[αMeF]TSDV[αMeS]S[αMeF]LEGEAA[αMeK]E[αMeF]IA[αMeF]VVK([Ahx-Ahx-Ahx-Lauroyl])GG-NH2
modifications: N-terminus assumed
SMILES: CCCCCCCCCCCC(=O)NCCCCCC(=O)NCCCCCC(=O)NCCCCCC(=O)NCCCC[C@H](NC(=O)[C@@H](NC(=O)[C@@H](NC(=O)[C@](C)(Cc1ccccc1)NC(=O)[C@H](C)NC(=O)[C@@H](NC(=O)[C@](C)(Cc1ccccc1)NC(=O)[C@H](CCC(=O)O)NC(=O)[C@](C)(CCCCN)NC(=O)[C@H](C)NC(=O)[C@H](C)NC(=O)[C@H](CCC(=O)O)NC(=O)CNC(=O)[C@H](CCC(=O)O)NC(=O)[C@H](CC(C)C)NC(=O)[C@](C)(Cc1ccccc1)NC(=O)[C@H](CO)NC(=O)[C@](C)(CO)NC(=O)[C@@H](NC(=O)[C@H](CC(=O)O)NC(=O)[C@H](CO)NC(=O)[C@@H](NC(=O)[C@](C)(Cc1ccccc1)NC(=O)[C@H](CO)NC(=O)CNC(=O)[C@H](CCC(=O)O)NC(=O)C(C)(C)NC(=O)[C@@H](N)Cc1c[nH]cn1)[C@@H](C)O)C(C)C)[C@@H](C)CC)C(C)C)C(C)C)C(=O)NCC(=O)NCC(N)=O
B2: SEQ ID NO 182 (peptide)
peptide: H[Aib]EGS[αMeF]TSDV[αMeS]S[αMeF]LEGEAA[αMeK]E[αMeF]IA[αMeF]VVK([γGlu-Stearoyl])GG-NH2
modifications: N-terminus assumed
SMILES: CCCCCCCCCCCCCCCCCC(=O)N[C@@H](CCC(=O)NCCCC[C@H](NC(=O)[C@@H](NC(=O)[C@@H](NC(=O)[C@](C)(Cc1ccccc1)NC(=O)[C@H](C)NC(=O)[C@@H](NC(=O)[C@](C)(Cc1ccccc1)NC(=O)[C@H](CCC(=O)O)NC(=O)[C@](C)(CCCCN)NC(=O)[C@H](C)NC(=O)[C@H](C)NC(=O)[C@H](CCC(=O)O)NC(=O)CNC(=O)[C@H](CCC(=O)O)NC(=O)[C@H](CC(C)C)NC(=O)[C@](C)(Cc1ccccc1)NC(=O)[C@H](CO)NC(=O)[C@](C)(CO)NC(=O)[C@@H](NC(=O)[C@H](CC(=O)O)NC(=O)[C@H](CO)NC(=O)[C@@H](NC(=O)[C@](C)(Cc1ccccc1)NC(=O)[C@H](CO)NC(=O)CNC(=O)[C@H](CCC(=O)O)NC(=O)C(C)(C)NC(=O)[C@@H](N)Cc1c[nH]cn1)[C@@H](C)O)C(C)C)[C@@H](C)CC)C(C)C)C(C)C)C(=O)NCC(=O)NCC(N)=O)C(=O)O

Tests used:
Assay in all cases: cell-based or functional assay
[1] = target: T1, glucose-dependent insulinotropic peptide (gastric inhibitory polypeptide) receptor (GIPR) (human, UniProt P48546 22-466)
T1 sequence (looked up): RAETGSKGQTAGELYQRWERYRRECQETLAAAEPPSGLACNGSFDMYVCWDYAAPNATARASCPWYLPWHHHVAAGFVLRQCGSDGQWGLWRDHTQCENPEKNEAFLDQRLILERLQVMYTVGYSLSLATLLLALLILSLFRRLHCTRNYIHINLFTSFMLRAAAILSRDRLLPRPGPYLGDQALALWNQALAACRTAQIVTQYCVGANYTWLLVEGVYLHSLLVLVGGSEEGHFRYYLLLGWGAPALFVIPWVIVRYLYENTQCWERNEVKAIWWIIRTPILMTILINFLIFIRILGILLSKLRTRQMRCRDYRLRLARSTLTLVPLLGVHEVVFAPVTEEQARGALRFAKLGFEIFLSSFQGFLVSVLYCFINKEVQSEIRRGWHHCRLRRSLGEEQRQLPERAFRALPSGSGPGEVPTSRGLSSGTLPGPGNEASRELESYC

GLP-1 receptor (GLP-1R) = GLP-1 receptor (GLP-1R) (human, UniProt P43220 24-463)
glucagon receptor (GCGR) = glucagon receptor (GCGR) (human, UniProt P47871 26-477)
glucagon receptor (GCGR), sequence (P47871 26-477): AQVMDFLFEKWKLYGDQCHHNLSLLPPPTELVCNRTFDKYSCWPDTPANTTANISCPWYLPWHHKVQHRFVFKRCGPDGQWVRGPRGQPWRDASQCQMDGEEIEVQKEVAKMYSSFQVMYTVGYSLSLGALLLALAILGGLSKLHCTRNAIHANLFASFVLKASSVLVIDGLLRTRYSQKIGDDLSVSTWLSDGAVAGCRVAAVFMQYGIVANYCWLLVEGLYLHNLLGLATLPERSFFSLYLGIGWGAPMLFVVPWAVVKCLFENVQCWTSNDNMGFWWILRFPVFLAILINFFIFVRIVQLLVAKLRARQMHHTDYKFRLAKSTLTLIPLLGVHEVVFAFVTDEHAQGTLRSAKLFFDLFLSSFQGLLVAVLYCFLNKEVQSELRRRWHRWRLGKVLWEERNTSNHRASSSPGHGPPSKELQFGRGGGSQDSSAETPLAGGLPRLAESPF

Binder	Primary assay EC50 (cAMP), GIP-R, first run [1] [nM]	Primary assay EC50 (cAMP), GIP-R, second run [1] [nM]	Primary assay EC50 (cAMP), GLP-1R n1 (GLP-1 receptor (GLP-1R)) [nM]	Primary assay EC50 (cAMP), GLP-1R n2 (GLP-1 receptor (GLP-1R)) [nM]	Primary assay EC50 (cAMP), Mean pM GLP-1R (GLP-1 receptor (GLP-1R)) [pM]	Primary assay EC50 (cAMP), Gluc-R, first run (glucagon receptor (GCGR)) [nM]	Primary assay EC50 (cAMP), Gluc-R, second run (glucagon receptor (GCGR)) [nM]
H[Aib]EGS[αMeF]TSDV[αMeS]S[αMeF]LEGEAA[αMeK]E[αMeF]IA[αMeF]VVK([PEG2′-PEG2′-PEG2′-Dodecylbenzoate])GG-NH2 [SEQ ID NO 181]	25	25	0.0021	0.00083	1.5	25	25
H[Aib]EGS[αMeF]TSDV[αMeS]S[αMeF]LEGEAA[αMeK]E[αMeF]IA[αMeF]VVK([PEG2′-Dodecylbenzoate])GG-NH2 [SEQ ID NO 179]	27	27	0.011	0.0044	7.9	27	27
H[Aib]EGS[αMeF]TSDV[αMeS]S[αMeF]LEGEAA[αMeK]E[αMeF]IA[αMeF]VVK([γGlu-γGlu-γGlu-Dodecylbenzoate])GG-NH2 [SEQ ID NO 175]	26	26	0.023	0.012	17.4	26	26
H[Aib]EGS[αMeF]TSDV[αMeS]S[αMeF]LEGEAA[αMeK]E[αMeF]IA[αMeF]VVK([Ahx-Dodecylbenzoate])GG-NH2 [SEQ ID NO 176]	27	27	0.023	0.0096	16	27	27
B1	27	27	0.0034	0.0017	2.6	27	27
H[Aib]EGS[αMeF]TSDV[αMeS]S[αMeF]LEGEAA[αMeK]E[αMeF]IA[αMeF]VVK([Ahx-Ahx-Dodecylbenzoate])GG-NH2 [SEQ ID NO 177]	27	27	0.0064	0.003	4.7	27	27
H[Aib]EGS[αMeF]TSDV[αMeS]S[αMeF]LEGEAA[αMeK]E[αMeF]IA[αMeF]VVK([Ahx-Ahx-Ahx-Dodecylbenzoate])GG-NH2 [SEQ ID NO 178]	26	26	0.005	0.0023	3.6	26	26
H[Aib]EGS[αMeF]TSDV[αMeS]S[αMeF]LEGEAA[αMeK]E[αMeF]IA[αMeF]VVK([γGlu-Dodecylbenzoate])GG-NH2 [SEQ ID NO 173]	27	27	0.021	0.0092	15.1	27	27
H[Aib]EGS[αMeF]TSDV[αMeS]S[αMeF]LEGEAA[αMeK]E[αMeF]IA[αMeF]VVK([PEG2′-PEG2′-Lauroyl])GG-NH2 [SEQ ID NO 171]	27	27	0.0025	0.0012	1.9	27	27
H[Aib]EGS[αMeF]TSDV[αMeS]S[αMeF]LEGEAA[αMeK]E[αMeF]IA[αMeF]VVK([PEG2′-Lauroyl])GG-NH2 [SEQ ID NO 170]	28	28	0.008	0.0045	6.2	28	28
H[Aib]EGS[αMeF]TSDV[αMeS]S[αMeF]LEGEAA[αMeK]E[αMeF]IA[αMeF]VVK([PEG2′-PEG2′-PEG2′-Lauroyl])GG-NH2 [SEQ ID NO 172]	26	26	0.0015	0.00072	1.1	26	26
H[Aib]EGS[αMeF]TSDV[αMeS]S[αMeF]LEGEAA[αMeK]E[αMeF]IA[αMeF]VVK([PEG2′-PEG2′-Dodecylbenzoate])GG-NH2 [SEQ ID NO 180]	26	26	0.0032	0.0011	2.2	26	26
B2	28	28	0.13	0.052	89.9	28	28
H[Aib]EGS[αMeF]TSDV[αMeS]S[αMeF]LEGEAA[αMeK]E[αMeF]IA[αMeF]VVK([γGlu-γGlu-Dodecylbenzoate])GG-NH2 [SEQ ID NO 174]	26	26	0.022	0.011	16.3	26	26
